From patent publication US20220267452A1 (Chugai, published 2022) come the findings set out here.

B1: FGA0005 bivalent Ab (FGA0005VH-F760mnN17/FGA0005VL-k0MTC) (antibody, human IgG1, kappa, N297A, V domains shown)
VH: QSLEESGGRLVTPGTPLTLTCTASGFSLSTYWICWVRQAPGEGLEWIGYISSSGNTYYASWAKGRFTISKTSSTTVDLKMTSLTTEDTATYFCGGHNSDYITGWALDPWGPGTLVTVSS
VL: AAVLTQTASPMSAAVGGTVTINCQSSKSVYRDKWLSWFQQKPGQPPKLLIYGASNLASGVSSRFKGSGSGTQFTLTISDVQCDDAATYYCLGGYSDNSEDAFGGGTEVVVKR
notes: Rabbit-human chimeric bivalent (monospecific) antibody, expressed in Expi293 cells; also called monospecific antibody FGA0005
B2: FGA0007 bivalent Ab (FGA0007VH-F760mnN17/FGA0007VL-k0MTC) (antibody, human IgG1, kappa, N297A, V domains shown)
VH: QSVEESGGRLVTPGTPLTLTCTVSGFSLSSYPMSWVRQAPGKGLEWIGIISSSGRTYYASWAKGRFTISKASSTTAALKMTSLTTEDTATYFCARGGVYKYDDYGDYVLNLWGRGTLVTVSS
VL: AIEMTQTPFSVSAAVGGTVTINCQASENIYSNLAWYQQKPGQPPKLLIYAASYLASGVPSRFKGSGSGTDYTLTISGVQCADAATYYCQCTLYSSTYGVAFGGGTEVVVKR
notes: Rabbit-human chimeric bivalent (monospecific) antibody, expressed in Expi293 cells; also called monospecific antibody FGA0007
B3: FGA0005/CD3-TRAB (FGA0005VH-F760mnN17/FGA0005VL-k0MTC//TR01H113-F760mnP17/L0011-k0) (bispecific antibody, human IgG1, kappa, N297A)
heavy 1: QSLEESGGRLVTPGTPLTLTCTASGFSLSTYWICWVRQAPGEGLEWIGYISSSGNTYYASWAKGRFTISKTSSTTVDLKMTSLTTEDTATYFCGGHNSDYITGWALDPWGPGTLVTVSSASTKGPSVFPLAPSSKSTSGGTAALGCLVKDYFPEPVTVSWNSGALTSGVHTFPAVLQSSGLYSLSSVVTVPSSSLGTQTYICNVNHKPSNTKVDKKVEPKSCDKTHTCPPCPAPELRGGPKVFLFPPKPKDTLMISRTPEVTCVVVDVSHEDPEVKFNWYVDGVEVHNAKTKPREEQYASTYRVVSVLTVLHQDWLNGKEYKCKVSNKALPAPIEKTISKAKGQPREPQVYTLPPSREEMTKNQVSLTCLVKGFYPSDIAVEWESNGQPENNYKTTPPYLDSDGSFFLYSKLTVDKSRWQQGNVFSCSVMHEALHNHYTQESLSLSP
light 1: AAVLTQTASPMSAAVGGTVTINCQSSKSVYRDKWLSWFQQKPGQPPKLLIYGASNLASGVSSRFKGSGSGTQFTLTISDVQCDDAATYYCLGGYSDNSEDAFGGGTEVVVKRTVAAPSVFIFPPSDEQLKSGTASVVCLLNNFYPREAKVQWKVDNALQSGNSQESVTEQDSKDCTYSLSSTLTLSKADYEKHKVYACEVTHQGLSSPVTKSFNRGEC
heavy 2: QVQLVESGGGVVQPGGSLRLSCAASGFTFSNAWMHWVRQAPGKGLEWVAQIKDKSQNYATYVAESVKGRFTISRADSKNSIYLQMNSLKTEDTAVYYCRYVHYAAGYGVDIWGQGTTVTVSSASTKGPSVFPLAPSSKSTSGGTAALGCLVKDYFPEPVTVSWNSGALTSGVHTFPAVLQSSGLYSLSSVVTVPSSSLGTQTYICNVNHKPSNTKVDKKVEPKSCDKTHTCPPCPAPELRGGPKVFLFPPKPKDTLMISRTPEVTCVVVDVSHEDPEVKFNWYVDGVEVHNAKTKPREEQYASTYRVVSVLTVLHQDWLNGKEYKCKVSNKALPAPIEKTISKAKGQPREPQVYTLPPSRKEMTKNQVSLTCLVKGFYPSDIAVEWESNGQPENNYKTTPPYLDSDGSFFLYSKLTVDKSRWQQGNVFSCSVMHEALHNHYTQKSLSLSP
light 2: DIVMTQSPLSLPVTPGEPASISCRSSQPLVHSNRNTYLHWYQQKPGQAPRLLIYKVSNRFSGVPDRFSGSGSGTDFTLKISRVEAEDVGVYYCGQGTQVPYTFGQGTKLEIKRTVAAPSVFIFPPSDEQLKSGTASVVCLLNNFYPREAKVQWKVDNALQSGNSQESVTEQDSKDSTYSLSSTLTLSKADYEKHKVYACEVTHQGLSSPVTKSFNRGEC
notes: Made by Fab-arm exchange (2-MEA) of the bivalent FGA0005 antibody and the anti-CD3 antibody; also called bispecific antibody FGA0005/CD3-TRAB
B4: FGA0007/CD3-TRAB (FGA0007VH-F760mnN17/FGA0007VL-k0MTC//TR01H113-F760mnP17/L0011-k0) (bispecific antibody, human IgG1, kappa, N297A)
heavy 1: QSVEESGGRLVTPGTPLTLTCTVSGFSLSSYPMSWVRQAPGKGLEWIGIISSSGRTYYASWAKGRFTISKASSTTAALKMTSLTTEDTATYFCARGGVYKYDDYGDYVLNLWGRGTLVTVSSASTKGPSVFPLAPSSKSTSGGTAALGCLVKDYFPEPVTVSWNSGALTSGVHTFPAVLQSSGLYSLSSVVTVPSSSLGTQTYICNVNHKPSNTKVDKKVEPKSCDKTHTCPPCPAPELRGGPKVFLFPPKPKDTLMISRTPEVTCVVVDVSHEDPEVKFNWYVDGVEVHNAKTKPREEQYASTYRVVSVLTVLHQDWLNGKEYKCKVSNKALPAPIEKTISKAKGQPREPQVYTLPPSREEMTKNQVSLTCLVKGFYPSDIAVEWESNGQPENNYKTTPPYLDSDGSFFLYSKLTVDKSRWQQGNVFSCSVMHEALHNHYTQESLSLSP
light 1: AIEMTQTPFSVSAAVGGTVTINCQASENIYSNLAWYQQKPGQPPKLLIYAASYLASGVPSRFKGSGSGTDYTLTISGVQCADAATYYCQCTLYSSTYGVAFGGGTEVVVKRTVAAPSVFIFPPSDEQLKSGTASVVCLLNNFYPREAKVQWKVDNALQSGNSQESVTEQDSKDCTYSLSSTLTLSKADYEKHKVYACEVTHQGLSSPVTKSFNRGEC
heavy 2: QVQLVESGGGVVQPGGSLRLSCAASGFTFSNAWMHWVRQAPGKGLEWVAQIKDKSQNYATYVAESVKGRFTISRADSKNSIYLQMNSLKTEDTAVYYCRYVHYAAGYGVDIWGQGTTVTVSSASTKGPSVFPLAPSSKSTSGGTAALGCLVKDYFPEPVTVSWNSGALTSGVHTFPAVLQSSGLYSLSSVVTVPSSSLGTQTYICNVNHKPSNTKVDKKVEPKSCDKTHTCPPCPAPELRGGPKVFLFPPKPKDTLMISRTPEVTCVVVDVSHEDPEVKFNWYVDGVEVHNAKTKPREEQYASTYRVVSVLTVLHQDWLNGKEYKCKVSNKALPAPIEKTISKAKGQPREPQVYTLPPSRKEMTKNQVSLTCLVKGFYPSDIAVEWESNGQPENNYKTTPPYLDSDGSFFLYSKLTVDKSRWQQGNVFSCSVMHEALHNHYTQKSLSLSP
light 2: DIVMTQSPLSLPVTPGEPASISCRSSQPLVHSNRNTYLHWYQQKPGQAPRLLIYKVSNRFSGVPDRFSGSGSGTDFTLKISRVEAEDVGVYYCGQGTQVPYTFGQGTKLEIKRTVAAPSVFIFPPSDEQLKSGTASVVCLLNNFYPREAKVQWKVDNALQSGNSQESVTEQDSKDSTYSLSSTLTLSKADYEKHKVYACEVTHQGLSSPVTKSFNRGEC
notes: Made by Fab-arm exchange (2-MEA); also called bispecific antibody FGA0007/CD3-TRAB

This experiment deals with T1, wild-type human FGFR3 (hFGFR3 protein, SEQ ID NO: 1) (human, UniProt P22607 23-804).
T1 construct: Full-length cDNA expressed in CHO DXB11s cells; The construct used in PC10/FGFR3 WT cells is not described; also called FGFR3 WT; wild-type hFGFR3
T1 sequence (P22607 other isoform, or with tags, fused parts or gaps): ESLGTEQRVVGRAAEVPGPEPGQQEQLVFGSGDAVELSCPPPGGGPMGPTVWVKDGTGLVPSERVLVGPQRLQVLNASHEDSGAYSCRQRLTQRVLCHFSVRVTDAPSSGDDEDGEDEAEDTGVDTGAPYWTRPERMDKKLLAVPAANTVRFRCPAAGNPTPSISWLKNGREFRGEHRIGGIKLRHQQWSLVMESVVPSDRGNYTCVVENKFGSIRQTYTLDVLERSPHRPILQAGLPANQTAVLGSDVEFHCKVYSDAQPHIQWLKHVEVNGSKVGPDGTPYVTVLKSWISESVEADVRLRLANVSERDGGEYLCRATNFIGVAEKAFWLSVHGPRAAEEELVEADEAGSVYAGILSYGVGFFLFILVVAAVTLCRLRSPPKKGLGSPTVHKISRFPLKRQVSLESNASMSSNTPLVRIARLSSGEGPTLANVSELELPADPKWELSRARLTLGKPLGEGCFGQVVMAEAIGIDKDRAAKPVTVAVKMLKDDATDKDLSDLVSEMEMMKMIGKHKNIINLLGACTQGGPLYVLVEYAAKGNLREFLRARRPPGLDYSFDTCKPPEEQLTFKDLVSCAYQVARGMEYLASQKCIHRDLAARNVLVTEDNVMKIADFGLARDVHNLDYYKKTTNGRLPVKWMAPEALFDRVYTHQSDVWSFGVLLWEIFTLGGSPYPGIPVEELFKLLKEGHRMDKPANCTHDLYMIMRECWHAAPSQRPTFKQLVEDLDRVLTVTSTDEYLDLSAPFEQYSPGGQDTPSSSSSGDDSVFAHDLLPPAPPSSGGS
As to the kind of experiment: flow cytometry on hFGFR3/CHO DXB11s cells. How it is done: The binding activity of monospecific antibodies FGA0005 and FGA0007 and bispecific antibodies FGA0005/CD3-TRAB and FGA0007/CD3-TRAB against wild-type hFGFR3 or hFGFR3 S249C mutant on the cell surface of hFGFR3/CHO DXB11s cells and hFGFR3 S249C/CHO DXB11s cells prepared by the method described in Example 1 and parent strain CHO DXB11s cells was measured using flow cytometry.
After 9×10⁶ cells of each cell line were washed with FACS/PBS supplemented with 0.5% BSA, 450 μL of Fixable Viability Dye 780 (eBioscience) diluted 5000 times was added to each of the cells. 25 μL each of the prepared cell suspensions was dispensed into v-bottom 96 well plates (Greiner Bio-one). Monospecific antibodies FGA0005 and FGA0007 with twice the final concentration of 0.01, 0.1, 1 μg/mL were prepared. In addition, bispecific antibodies FGA0005/CD3-TRAB and FGA0007/CD3-TRAB with twice the final concentration of 5, 10, and 20 μg/mL were prepared. 25 μL solutions containing the monospecific antibodies FGA0005 bivalent Ab and FGA0007 bivalent Ab, and the bispecific antibodies FGA0005/CD3-TRAB and FGA0007/CD3-TRAB prepared at a double concentration were added to the v-bottom 96 well plates, and allowed to stand at 4° C. for 30 minutes. After the cells were washed with FACS/PBS, Goat anti-Human IgG Fc Cross-Adsorbed Secondary Antibody, Dylight 650 Conjugate (Invitrogen) diluted 100-fold with FACS/PBS was added at 50 μL each and left to stand at 4° C. for 30 minutes. Cells were washed with FACS/PBS and then analyzed by flow cytometry.
Regarding B1, the binding result is on record as “no binding (tested: 0.01, 0.1, 1 µg/mL)”. Next, B2: “no binding (tested: 0.01, 0.1, 1 µg/mL)”; B3: “no binding (tested: 5, 10, and 20 µg/mL)”. Next, B4: “no binding (tested: 5, 10, and 20 µg/mL)”.
